Experimental data from the PETadex activity labels.

B1: unnamed (protein)
chain: MKTTALRIKGLSIAAAIALSTLAPAAFSQTSPPTSASLNATSGPLSVSTASVFLPVGFGGGTIYYPTVAGKYGVIAISPGFTATESSIAWLGRRIATHGFVVITLNTNTTLDQPDSRATQLMAALRYVLNSSGSAVRARIDPTRLAVAGHSMGGGGSLIAARDNPTLKASYPMTPWNISSNFSTVRVPTMIIGADGDTIAPVASHARPFYASLPSSTLKAYGELNGATHFAPNTTNTPIGRYAVTWMKRFVDGDTRYSPFLCGAQHTSYATSRIFDRYNQNCPY
B2: unnamed (protein)
chain: MSLDVWEWSTEAGGDIRQWDYLGADNQKWRINDLGNGYHSIISAYNGLSLDVYEWSTSNGGDIRQWDYTGAENQQWAFQPTGTSGGGSTGGGSTSCVSSSDITSSKLSATGASGPYSVRSKGVSNWSASGFGGGTIWYPTNASACGRMPGIAVVPGFLSYESSIRWWGARLASWGYVVITIDTNSIYDQPPSRGRQLSDALDHIIYDSTTRNMVDPNRLGAIGWSMGGGGSIWLANNRPEVKAIIPQAPWYLTTTSTSKPAFYIACESDTVAPTYSHVDDFYRYSTGPKMKIEINNGSHWCANSGNGNEGTLGKAGISWMKRYINGDTRFNQFLCGQENYGSRYDVSDYDYASCP
B3: unnamed (protein)
chain: MIIRYISRLALLAGAMTLSASLWAAPVPCRDCSTGYQRGDVPSTAELESRRGPYSVRTIRVSRLVNGFGGGTIYYSTESGGGQGIIAVVPGYLSLETTIQWWGPRLASWGFTVITMDTNTIYDQPTSRASQLSAALNYVINKGNDSRSPLYGLVDPNRTGVIGWSMGGGGALELSTRRNIQATIAQAPWHVGAGTFAQISTPTMILACQLDAVAPTAIHAKAFYNVIPRTTSKAYFEVRAGSHFCANTGYPNTDIIGRNGIAWMKRFIDNDTRYNQFLCGPNFESDFRISKYRDTCNY
B4: unnamed (protein)
chain: MMAAAGSGGTSGGVSGSTGSAGAAGGATGAAGGGASSTGGFVREDAPTEMSTRAAKGKYTVKSYTSGFSGTGKDFLAGTLYYPTDADPPFASVAVVPGFTALQNSIMDWGPFLASHGIVTMTIDTLTTSDPPAQRADELMGALKSIAGENTRDGSPIKGQLDTTRQCVSGWSMGGGGTLIAASMHPELKCAVSFAAWQPTGGAMNKVPALMFEGTTDPLAAGMSQGFYDQTPDSTPKMIFEVAGASHDVANSPHNSMGIIGEYGLSWFKVYLEGDMRYKQFLLLP
B5: unnamed (protein)
chain: MNRSILERFVVGTSALLFSISAYSFTPSPTPEPEPEPCQGVCDFTRGPNPTSSYLEASRGPYSVNTVDVSRSVSGFGGGTIHYPTNTTGKMGAIAIVPGFLAAESSIAWWGPRLASHGFVVITIATNSTFDQPASRESQLSRALDYVINQSNSSGSPIAGKVDSTRVGAMGWSMGGGGTLKIASGSRLSAAIPLAPWHTGSNDFDQIDTPTMIIACENDTTAPVGRHASPFYNRISNATDKAYLEINNGGHSCANGGGTNAGLLGKYGVSWMKRFIDKDTRYSQFLCGPNHASNSAISEYRDTCSY
B6: unnamed (protein)
chain: MQVRLSSLCRTALVALGLAWAAATAHAQTIDDASDISLAIGPAPTSSALNALNGPFAVSTSIVVLPVGFGGGTIYYPTQAGKYGVIALCPGFTATSTSLAWLARRLASWGFVVVNMNTVTVFDFPSSRATEMRVALRYATNWSSATVRARIDPNRQAVAGHSMGGGGALIAAVRNPELKAAYALMPWSPTYSPTSMKVPTMLVAADADTIAPAALMVRPYYKLIPATVPKAYAELRWGNHFSPILVNTPIGRYGAAWMKRFVDGDTRYQDFLCGAAHQYYANALVFASYLKNCPY
B7: unnamed (protein)
chain: MMNSVMDRFTIAASAVLFSASAWSFTPTPDPDPTPPPQPCQVDCDFTRGPNPTSSYLEANSGPYSVGTVRVSSSVNGFGGGTIHYPTNTTGKMGAIAVVPGFTAGESSIAWWGPRLASHGFVVITIATNSGFDQPASRATQLSNALDYVISQSNSSSSAISGMVDASRLGAMGWSMGGGGALRLASGARLSAAIPLAPWHSGSNPFDQIETPTMIIACESDSTAPVGSHASPFYNRIPASTDKAYLEINNGDHRCANGGGSNGGLLGKYGVSWMKRFIDRDTRYQQFLCGPNHEANTAISEYRDTCAY
B8: unnamed (protein)
chain: MFGCYGCTDGSIVSAPISTVGYSDIKVTFTRSSSGLDLGEAGIAEWSANGSTYTVIESSRSVSGAATFNLPSGAAGQSGLRVRFRVDASLSSEYYTVDTITVEGTSSGGGGGGGVQIGPDPTTSTLESSSGGSFSVQYQSVSSLSTSGFDGGRLYYPTTSGQYGGIVLCPGYTASSSSLAWWGERLASWGFIVLIIDTNSAYDQPSSRATQLMAGVAWLKARNNDSGHALYGKLRESDIAVGGHSMGGGGTLIALRDNPSLKTGFAMTPWNSSTNFSGITQPTFILGCESDSVAPNSSHSIPFYNSISSSVKKVYAEVDGASHFCPNSSDAKMGKYGIAWYKRFLDGDTRFQPWLCPSATGGN
B9: unnamed (protein)
chain: MKTSRHSTATTTLTRLARLALAAAAVLLSAAAQAQVVIFQENFNSGLGQFTASGTVSTSSGGARMQGCGGGTDGTITSSPISTVGFTNLKLSFDRTTTGLDSGEAGIAEYSVNGSTWTVIESTQSSSGRVTIALPAAAAGQAALRLRFRVNASLSSETYTVDNIPLAGTPGGNSAPGPGGTPYQRGPDPTAASLEASDGPFAVATLTVSSASGYGAGTIYYPTNTEGPFAAIAVVPGYTGTQSSIQWLGPRLASHGFVVITIDTNSLSDNPESRATQLMAALNQLVTLSNTSGHPIYGKVDSNRLGVMGHSMGGGGTLVAARDNPTLKAAIPLAPWYSSTNFSGVTVPTLVVACQSDTVAPVSSHALPMYNSIPSSTDKAYLEISGGDHLCVTTGNGNKAIQGKYVVAWMKRFLDNDTRYSPFLCGAPHQADLSGSAVSEYRDTCPY
B10: unnamed (protein)
chain: MKTLFKAAVLCGAMLTSLGVLAQANPYQKGPDPTVSNLEAARGSFAVSSTSISGLSATGFGGGSLHYPTAAGSYGLIAVAPPYLAQSSSIAWLGPRLASHGFVVVMIDVNSTLDFPESRSRQQLAAIDYAIAQSARTTSPIYRKVDTTRRGVSGHSMGGGASILTARNAPANIKGAFPLTPWSSDKNFSSLQVPTGYLACESDTVAANADHSLNFYNRMPASTPKGYYELRGESHFCPQSTANNPVIGKYLVAWMKRFVDNDTRFSPFLSGALPNADLSSRRFSALRTSGL
B11: unnamed (protein)
chain: MNKTILEKIAVGTGALLFSVSAFSFTPSPTPDPTPDPEPCQGECDFTRGPNPTSSYMEANAGPYTVRTSSVSGSVSGFGGGTVHYPTNTSGEMGAIAIVPGFLAGESSISWWGPRLASHGFVVITIATNSVFDQPGSRSTQLGRALDYLVSQSNSSNSPISGMVDASRLGAMGWSMGGGGVLRLASGSRLVAAIPLAPWNTGSNDFDQIQTPTMIMACENDSTARVGTHASPFYNSIPGSTDKAYLEINGGSHSCANGGGSNGGLLGKYGVSWMKLFMDEDTRYSQFLCGPNHAANGAISEYRDTCNY
B12: unnamed (protein)
chain: MDWPRPRCVRRRTSNGQRRSTTCRGDIPMSTRVTHSRLTLIRCLALAAPLMCLGLAQAQTSPPTSESLNARSGPLSIASENVSRLAARGFGGGTIYYPRTSGRYGLIAISPGFTATESSVAWIGEKLASHGFVAIVINTNSTLDQPSSRARQLRAALDHAISSASSTVRNRIDPSRQAVAGHSMGGGGSLIAAEDDPSLKAAFPLTPWNTSSSFTRVRVPSMIFGADGDTIAPVAVHARPFYGSIPRTTSKAYAELQSATHFAPNVRNEAIGRYGVAWMKRFMDGDTRYSTFLCGSEHDRYNTSLRFDQFQSNCPY
B13: unnamed (protein)
chain: MKHFHRFGATLFRGAAIAGPLALLGVAHAQTTAPTSASLNATAGPLSIASSTVSSLAANGFGGGTIYYPTASGRFGVVAISPGFTASQSTIEWLGRRMASHGFVVITIDTITTLDYPDSRATQLRAALDHVINRASTTVRNKVDPARRAVAGHSMGGGGSLIAAQADSTLKAAYPMTPWNITENFSRVRVPTMIIGADGDTIAPVTSHARPFYASIPNTTFKAYGELNNATHFAPNVTNTPIGRYGVAWMKRFVDGDTRYSTFLCGAEQNRYNTSLVFDQYRSNCPY
B14: unnamed (protein)
chain: MTEKDTSMKFFQATLSLTVGVLLTTALSGTALAESAYLRGPAPTVASVEAPAGPYQVTSQVMKDPVGYKAGTVFYPSDAQGQSFGLIVVAPGFIETQSWNAWWAQYLASHGFVVINIDTQSTLEFPAARAKEELAALNDVVRRSTQPDSPLFGLVDASRQGAMGHSMGGGATLEIAKANPYLKAIVPMAPFQTSGTDYSKLTVPTLIMACKGDVVATASSHSEPIYKSLSPSLDKAYLEMQGGAGHPCTTSVGTSDKVRTLAGKYGLAWFKRFLDEDTRYSQFLCGIPHGLDMFGKVISGYKGNCPY

Substrate: BHET
Settings: 120 h

Row | Protein | plate clearing
1 | B1 | not clears the plate
2 | B2 | not clears the plate
3 | B3 | not clears the plate
4 | B4 | not clears the plate
5 | B5 | not clears the plate
6 | B6 | not clears the plate
7 | B7 | clears the plate (z > 3 vs empty vector)
8 | B8 | not clears the plate
9 | B9 | clears the plate (z > 3 vs empty vector)
10 | B10 | not clears the plate
11 | B11 | not clears the plate
12 | B12 | not clears the plate
13 | B13 | not clears the plate
14 | B14 | not clears the plate
